{"source": "paper PMC10808743", "about": "“Generation of human TMEM16F-specific affibodies using purified TMEM16F” (Frontiers in Molecular Biosciences, 2023)", "proteins": {"B1": {"name": "human TMEM16F (hTMEM16F) variant 1, SBP-tagged, purified (natural protein, UniProt Q4KMQ2-1 1-910, looked up)", "chain": "MKKMSRNVLLQMEEEEDDDDGDIVLENLGQTIVPDLGSLESQHDFRTPEFEEFNGKPDSLFFNDGQRRIDFVLVYEDESRKETNKKGTNEKQRRKRQAYESNLICHGLQLEATRSVLDDKLVFVKVHAPWEVLCTYAEIMHIKLPLKPNDLKNRSSAFGTLNWFTKVLSVDESIIKPEQEFFTAPFEKNRMNDFYIVDRDAFFNPATRSRIVYFILSRVKYQVINNVSKFGINRLVNSGIYKAAFPLHDCKFRRQSEDPSCPNERYLLYREWAHPRSIYKKQPLDLIRKYYGEKIGIYFAWLGYYTQMLLLAAVVGVACFLYGYLNQDNCTWSKEVCHPDIGGKIIMCPQCDRLCPFWKLNITCESSKKLCIFDSFGTLVFAVFMGVWVTLFLEFWKRRQAELEYEWDTVELQQEEQARPEYEARCTHVVINEITQEEERIPFTAWGKCIRITLCASAVFFWILLIIASVIGIIVYRLSVFIVFSAKLPKNINGTDPIQKYLTPQTATSITASIISFIIIMILNTIYEKVAIMITNFELPRTQTDYENSLTMKMFLFQFVNYYSSCFYIAFFKGKFVGYPGDPVYWLGKYRNEECDPGGCLLELTTQLTIIMGGKAIWNNIQEVLLPWIMNLIGRFHRVSGSEKITPRWEQDYHLQPMGKLGLFYEYLEMIIQFGFVTLFVASFPLAPLLALVNNILEIRVDAWKLTTQFRRLVPEKAQDIGAWQPIMQGIAILAVVTNAMIIAFTSDMIPRLVYYWSFSVPPYGDHTSYTMEGYINNTLSIFKVADFKNKSKGNPYSDLGNHTTCRYRDFRYPPGHPQEYKHNIYYWHVIAAKLAFIIVMEHVIYSVKFFISYAIPDVSKRTKSKIQREKYLTQKLLHENHLKDMTKNMGVIAERMIEAVDNNLRPKSE", "notes": "Human TMEM16F variant 1 (anoctamin-6), cDNA clone NM_001025356.2 bought from Genescript; called 'purified whole TMEM16F protein' in the discussion; In one BLI experiment the same protein was incorporated into nanodiscs (MSP 2N2, Addgene #29520; POPC:POPG 3:1; TMEM16F:MSP:lipid 1:5:100) under detergent-free conditions; also called purified human TMEM16F protein; TMEM16F-nanodisc complex (when …)"}}, "biological_target": "the molecule itself", "assay": "SEC; 40 μg TMEM16F (0.4 mg/mL) incubated with 40 μg #50 affibody (0.5 mg/mL) for 2 h at 4°C, separated on Superose 6 FPLC; fractions around 14.8 mL analysed by SDS-PAGE and Western blot"}
{"protein": "B1", "values": [{"measurement": "stoichiometry N", "result": 2}]}
